According to doi:10.1101/2021.07.15.452465:

What was measured:
[1] = molecular target: A. nidulans CCAAT-binding complex, conserved core domains of HapB, HapC and HapE (HapB^231-293, HapC^42-132, HapE^47-164) (Aspergillus nidulans); experiment: SEC
[2] = molecular target: A. nidulans CCAAT-binding complex, conserved core domains of HapB, HapC and HapE (HapB^231-293, HapC^42-132, HapE^47-164) (Aspergillus nidulans); experiment: crystal structure
[3] = molecular target: A. nidulans HapX^36-133M carrying C92K and C129S point mutations (Aspergillus nidulans); experiment: crystal structure
[4] = molecular target: A. nidulans CCAAT-binding complex, conserved core domains of HapB, HapC and HapE (HapB^231-293, HapC^42-132, HapE^47-164) (Aspergillus nidulans); experiment: SPR

| Substance | stoichiometry N [1] | stoichiometry N (HapX subunits per CBC) [2] | stoichiometry N [3] | fold increase of binding against HapX^36-133 [4] |
| --- | --- | --- | --- | --- |
| A. nidulans HapX^36-133M carrying C92K and C129S point mutations (domain or fragment) | 2 HapX per CBC | 2 | 2 |  |
| A. nidulans HapX^36-141 (domain or fragment) |  |  |  | < 3.6 fold |
